In publication PMC11914300, “Immediate early splicing controls translation in activated T-cells and is mediated by hnRNPC2 phosphorylation”:

Assays:
Conditions in all cases: protein: recombinant; tags: N-terminal Twin-Strep-SUMO, removed with PreScission protease; chain copies: 4; label: 5' 32P
[1] = target: T1, hnRNPC2 WT (UniProt P07910 1-306); experiment: EMSA; 0-10 uM protein, 10 pmol RNA; EMSA: 20 mM Tris-HCl pH 8.0, 0.25 M NaCl, 1 mM DTT, 10% glycerol, 0.2 mM EDTA; 37 C, 20 min; 5% polyacrylamide gel
T1 sequence (P07910 whole entry): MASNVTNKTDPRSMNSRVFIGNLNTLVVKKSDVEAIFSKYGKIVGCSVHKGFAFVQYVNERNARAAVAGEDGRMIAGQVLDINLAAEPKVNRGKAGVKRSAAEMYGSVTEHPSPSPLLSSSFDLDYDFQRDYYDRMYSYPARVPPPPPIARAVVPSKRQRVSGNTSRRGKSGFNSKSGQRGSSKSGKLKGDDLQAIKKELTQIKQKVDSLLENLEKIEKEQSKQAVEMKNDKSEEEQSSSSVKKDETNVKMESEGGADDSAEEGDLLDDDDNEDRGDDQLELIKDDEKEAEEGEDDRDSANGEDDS

[2] = target: hnRNPC2 S115D (UniProt P07910 1-306, S115D); experiment: EMSA; 0-2000 nM protein, 10 pmol RNA; no difference from WT; EMSA: 20 mM Tris-HCl pH 8.0, 0.25 M NaCl, 1 mM DTT, 10% glycerol, 0.2 mM EDTA; 37 C, 20 min; 5% polyacrylamide gel
hnRNPC2 S115D, sequence (P07910 whole entry S115D): as the sequence (P07910 whole entry) above, with S115D counted along it

[3] = target: T1, hnRNPC2 WT; experiment: EMSA; 0-2000 nM protein, 10 pmol RNA; higher affinity than intron RNAs; EMSA: 20 mM Tris-HCl pH 8.0, 0.25 M NaCl, 1 mM DTT, 10% glycerol, 0.2 mM EDTA; 37 C, 20 min; 5% polyacrylamide gel

Row | Binder | binding result [1] | binding result [2] | binding result [3]
1 | AUCUCUUGGCUAUCCCUCUUGCUUCUCCAG (ssRNA) [eIF5A intron 5 3' splice site RNA] | binds |  | 
2 | UUUUUUUUUUUUUUUUUUUUUUUUUUUUUUUUUUUUUUUUUUUUU (ssRNA) [poly-U 45 nt] |  | binds | binds
3 | ACCCCCUGCACACUUACCCAAUCCUUUUAG (ssRNA) [RPL10 intron 6 3' splice site RNA] | binds |  | 
